Molecular target: HLA-A2 molecules on T2 cells (human)
Assay: T2 cell HLA-A2 upregulation assay, flow cytometry, peptide 25 µg/ml; negative control
Settings: remark: other sources report otherwise

B1: CAP-7 peptide (peptide)
peptide: HLFGYSWYK
T2 binding (MFI): 260 MFI
